This note sets out measurements from the supplement of paper PMC10567573.

The data set is described as follows: protein stability index of a GFP-peptide fusion (GPS, HEK-293T) (PSI 1-6); higher = more stable.
The mark [1] stands for this setting: treatment: DMSO, c terminus: a fixed tail appended.
Where [2] appears, read: treatment: MLN4924 1 uM, 8 h, c terminus: a fixed tail appended.

± gives the standard deviation.
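Further: 24-mer peptide tiles fused after GFP, lentivirally expressed, FACS-sorted into six equal bins by GFP/DsRed ratio, decoded by Illumina sequencing, PSI is the read-weighted mean bin number.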

On to FSDGEKCRREAFRRLGNGVSDDLS [PHTF1], for which the protein stability index runs as follows: under setting [1], 4.05 ± 0.13; under setting [2], 3.82 ± 0.17.
For FSEEDEEETTSQDWGTPRELTFSY [RTN2] the same measures were 4.22 ± 0.15 and 4.22 ± 0.49.
Taken in the same sequence, the figures for FSHITSARKARKYEIPHFRLKKVE [PHTF1] were 2.53 ± 0.47 and 2.82 ± 0.4.
With FSIDEELVYENFYADFGPLNLAMV [CDC14A], the protein stability index is 2.75 ± 0.6 under setting [1] and 2.43 ± 0.6 under setting [2].
Take FSVSSTSRRIYRCRNCINLQNEAQ [IQUB]: the protein stability index worked out at 2.02 ± 0.19 under setting [1] and 2.34 ± 0.34 under setting [2].
For the sequence FTDPFFIVETLCIIWFSFELVVRF [KCNA1], the protein stability index stood at 3.26 ± 0.13 under setting [1] and 3.18 ± 0.69 under setting [2].
Take FTDTSIILFLNKKDLFEEKIKKSP [GNAI1]: the protein stability index is, setting by setting: under setting [1], 2.2 ± 0.97; under setting [2], 2.35 ± 1.1.
For FVALKSVRVPNGGGGGGGLPISTV [CDK4] the same measures were 2.52 ± 0.24 and 2.41 ± 0.33.
With FVETRLRDLPDTPRRFTFYPCVLA [TRIM39], the protein stability index was 2.63 ± 0.68 under setting [1] and 2.16 ± 0.071 under setting [2].
On to FVSALGITAGAHRLWSHRSYKARL [SCD], for which the protein stability index turned out to be 2.73 ± 0.93 under setting [1] and 2.5 ± 0.24 under setting [2].
For FYRYKMPRLIAKVEGKGNGIKTVI [EIF5] the same measures were 2.28 ± 0.45 and 2.26 ± 0.23.
For GAFETVLASAYTGRLSMAAADIVN [ZBTB22] the same measures were 2.88 ± 0.61 and 2.91 ± 0.59.
On to GALTGKENNMLQPETHIFTAPEEV [DMRTC1], for which the protein stability index runs as follows: under setting [1], 5.19 ± 0.17; under setting [2], 5.01 ± 0.16.
Regarding GARYEVTVVSVRGFEESEPLTGFL [TNXB], the protein stability index by setting is: under setting [1], 2.53 ± 0.79; under setting [2], 2.38 ± 0.59.
GATALHFAAEAGHIDIVKELIKWR [FEM1B]: the protein stability index is, setting by setting: under setting [1], 2.39 ± 0.35; under setting [2], 2.43 ± 0.33.
For GATVGRKSRRSRSESETSTMAAKK [C18orf25] the same measures were 5.23 ± 0.31 and 5.48 ± 0.27.
GCILFEYYRGFTLFQTHENREHLV [CLK3] had a protein stability index under setting [1] of 2.97 ± 0.85 and a protein stability index under setting [2] of 2.21 ± 0.69.
GDIHLSPEEPAASTDPNIVRKKER [TAF7L]: the protein stability index is, setting by setting: under setting [1], 5.38 ± 0.32; under setting [2], 5.43 ± 0.27.
For GDKASPDQNASTHTPQSSVKTSVP [CLINT1] the same measures were 5.54 ± 0.19 and 5.38 ± 0.28.
Consider GDQEGPRPARSTLDELLGRGMATK [FBF1], for which the protein stability index runs as follows: under setting [1], 4.62 ± 0.27; under setting [2], 4.73 ± 0.11.
For the sequence GDRAGDASKDILLGPWDMVLAQG [SCARA5], the protein stability index by setting is: (treatment: DMSO, c terminus: native) 2.76 ± 0.64; (treatment: MLN4924 1 uM, 8 h, c terminus: native) 2.69 ± 0.54.
For the sequence GDTSATESGDEVPVELYTAFQHTP [KMT2E], the protein stability index was determined as 4.97 ± 0.18 under setting [1] and 5.04 ± 0.17 under setting [2].
For the sequence GERVVINISGLRFETQLKTLCQFP [KCNA3], the protein stability index stood at 2.61 ± 0.45 under setting [1] and 2.19 ± 0.083 under setting [2].
The sequence GESDNPLRFTSGLVVALDVDATLE [INTS4] returned a protein stability index under setting [1] of 3.23 ± 0.37 and a protein stability index under setting [2] of 3.54 ± 0.15.
Regarding GFIKKFVLCPECENPETDLHVNPK [EIF5], the protein stability index runs as follows: under setting [1], 3.09 ± 0.38; under setting [2], 3.29 ± 0.05.
As to GGLLDEAMLDEISLMDLAIEEGFN [NFE2L1], the protein stability index under setting [1] is 4.16 ± 0.21 and the protein stability index under setting [2] is 3.86 ± 0.31.
In the case of GGLSLHDYKLLKPSLAVNLADPYR [JUNB], the protein stability index came to 2.65 ± 0.13 under setting [1] and 2.76 ± 0.098 under setting [2].
With GGPAGQAGRGGAAGTAGVGETGSG [MYOZ1], the protein stability index is 5.42 ± 0.21 under setting [1] and 5.34 ± 0.32 under setting [2].
The sequence GGSSGKGTTLRGRSDADLVVFLSP [OAS1] displayed a protein stability index under setting [1] of 2.73 ± 0.17 and a protein stability index under setting [2] of 3.07 ± 0.35.
GGWETVFRPVSETCTDRSGISTGH [FUT8]: the protein stability index worked out at 3.48 ± 0.35 under setting [1] and 3.43 ± 0.22 under setting [2].
In the case of GGYRPAEDKIFPVPEEPPVKKLMR [ZBED1], the protein stability index was 3.99 ± 0.13 under setting [1] and 4.36 ± 0.3 under setting [2].
As to GKIIGGMWRDLTDEEKQEYLNEYE [SMARCE1], the protein stability index under setting [1] is 4.56 ± 0.14 and the protein stability index under setting [2] worked out at 4.64 ± 0.27.
With GKNNEFSRLVAGEYLSFFDFSGLT [PSD2], the protein stability index runs as follows: under setting [1], 2.13 ± 0.41; under setting [2], 2.13 ± 0.32.
As for GKRMEFTSSCPNVSERSFDNVRSL [CRYBA1], the protein stability index stood at 4.12 ± 0.3 under setting [1] and 4.17 ± 0.28 under setting [2].
As to GKRTPRGRRGWKKFYAVLKGTILY [PSD2], the protein stability index runs as follows: under setting [1], 2.97 ± 1.6; under setting [2], 2.61 ± 0.73.
With GKVAVGQDDLTVVLNEEGICTQKC [VPS39], the protein stability index was found to be 4.91 ± 0.22 under setting [1] and 4.79 ± 0.28 under setting [2].
In the case of GLEQFINKVAGHPLAQNERCLHMF [SNX3], the protein stability index by setting is: under setting [1], 2.72 ± 0.61; under setting [2], 2.21 ± 0.11.
In the case of GNIKGIEGHSPGNLPKFCHECGTK [ZC2HC1A], the protein stability index is, setting by setting: under setting [1], 3.82 ± 0.52; under setting [2], 4.59 ± 0.085.
As to GPASRMDPESERALQAPHSPSKTD [PBXIP1], the protein stability index worked out at 5.46 ± 0.24 under setting [1] and 5.34 ± 0.23 under setting [2].
With GPFRTLLQFLYTGQLDEKEKDLVG [RHOBTB1], the protein stability index under setting [1] amounted to 2 ± 0.054 and the protein stability index under setting [2] was 2.49 ± 0.3.
Regarding GPMCDLLWSDPDDRGGWGISPRGA [PPP2CA], the protein stability index is, setting by setting: under setting [1], 3.1 ± 0.42; under setting [2], 3.21 ± 0.33.
Taken in the same sequence, the figures for GPNPSKLIQQFLTLRPDQQLHIFN [CDS2] were 2.16 ± 0.42 and 2.09 ± 0.25.
For GQDTMLKAMFSGRVEVLTDAGGWV [KCTD13], the protein stability index is, setting by setting: under setting [1], 2.45 ± 0.26; under setting [2], 2.36 ± 0.35.
On to GQPAPPQLLLGRLFRWPDLQHAVE [SMAD6], for which the protein stability index under setting [1] stood at 2.63 ± 0.1 and the protein stability index under setting [2] was determined as 2.82 ± 0.39.
Turning to GQTTGHPYYLRSFLVVLKTVLENE [FAN1], the protein stability index is 2.46 ± 0.5 under setting [1] and 2.21 ± 0.04 under setting [2].
Regarding GRTHSACDALRTLAEARRLFPGRV [RSAD1], the protein stability index is 2.99 ± 0.29 under setting [1] and 3.44 ± 0.29 under setting [2].
Consider GSGYEKLGPSRDPDPLNICVFILL [RTP4], for which the protein stability index reads like this: under setting [1], 3.15 ± 0.2; under setting [2], 2.45 ± 0.68.
In the case of GSNPPYLPFRDASFGNCTYNLTIL [CDC14A], the protein stability index reads like this: under setting [1], 2.6 ± 0.69; under setting [2], 2.8 ± 0.73.
For GSPDDSHPKDGPSPGGTLMDLSER [DLC1] the same measures were 5.54 ± 0.32 and 5.48 ± 0.28.
On to GSPVSSWILLAESNSADDETDDPR [OAS1], for which the protein stability index is, setting by setting: under setting [1], 5.02 ± 0.27; under setting [2], 4.99 ± 0.39.
Take GSRVISHYAGQDATDPFVAFHINK [FADS1]: the protein stability index amounted to 3.33 ± 0.31 under setting [1] and 3.35 ± 0.22 under setting [2].
On to GSSSVALPKEASDGTGASQEPPTT [TOR1AIP2], for which the protein stability index is, setting by setting: under setting [1], 5.4 ± 0.43; under setting [2], 5.6 ± 0.34.
Take GTAGPLALARDLLSETADPFFVLN [GMPPB]: the protein stability index is, setting by setting: under setting [1], 3.18 ± 0.31; under setting [2], 3.23 ± 0.27.
